Data published in patent US20260124324A1, “PHOTOCLICK CHEMISTRY OF SILK FOR TEMPORARY UV TATTOOS” (Trustees of Tufts College, priority 2023, published 2026).
Where two headings read alike, the source gives them in different places.

Key:
[1] = pyrazoline bound to SilMA, derived from the named DAT
Protocol: Fluorophores bound to either silk or PEG-DA were generated by dissolving a DAT precursor to a final concentration of 100 μM in water for silk-bound fluorophores and either DIW, IPA or ethyl acetate (EtAc) for PEG-DA-bound fluorophores. These were reacted by exposure to 302 nm light (specs) for 10 minutes under constant stirring. To an opaque black 96-well plate (Corning 3915) was added 3 separate 100 μL aliquots of fluorophore solution. These were measured by a Molecular Devices SpectraMax M2 plate reader, exciting at either 300, 365 or 405 nm and recording spectra from 25 nm […] the excitation wavelength down to 650 nm with a 5 nm resolution.

[2] = Patterned fluorescent films (SilMA or SF/PEG-DA); assay type: physicochemical
Protocol: Multispectral imaging was performed with a Nuance FX multispectral imaging system with a Canon macro lens and illuminated by 365 nm light. Exposure times were varied by sample and were selected by automatic exposure timing in the acquisition software. Images were processed using Nuance software and spectral elements were picked by hand from at least 20 sample locations. Raw processed spectra had large discontinuities introduced by the internal monochromator, which were removed with a custom algorithm.
A glass coverslip (22×22 mm) was placed onto the vacuum chuck of a Laurell WS-650 spin coater. Onto the surface was pipetted 100 μL of silk solution (7.0% w/w silk fibroin, 0.7% w/w polyethylene glycol diacrylate), which was manually spread to cover the entire surface. […] The sample was then water vapor annealed by being placed in a Memmert UN 30 Plus humidity-controlled oven at 45 C and 90% relative humidity. A timer was started once the oven had reached 90% humidity after then drop due to sample addition and allowed to sit in the oven for 5.0 minutes. Once removed the sample was loaded onto the vacuum chuck again and 30 μL of DAT solution (5 mg/mL DAT in isopropyl alcohol) was dropped onto the surface. A combined spreading/evaporation program was run with a single 20 second phase (4000 RPM, 250 RPM/sec). The sample was then covered by a photomask and exposed to 302 nm UV light (Labortechnik UVLMS-38 8 Watt UV multiwavelength lamp) to induce the photoclick reaction. If a multi-emitter film was to be fabricated, then a PDMS isolation layer must be applied if the lower layer is composed of SF/PEG-DA. To form the isolation layer, Sylgard 184 monomer was mixed with curing agent in a 10:1 ratio and 500 μL was applied to the glass slide by spin coating (5 sec, 500 RPM spread, 30 sec 5000 RPM thinning, 500 RPM/sec acceleration). This was cured by heating the slide on a 80 C hotplate for 30 minutes. The subsequent layer could then be applied in an identical manner to the first. If SilMA was used as the lower layer, the isolation layer is not needed and the second layer can be applied directly.
Films were fabricated with a spin-coating process, where either SilMA or a mixture of SF and PEGDA were dropped onto glass coverslips and spun to produce uniform films. Afterwards the films were water vapor annealed to recrystallize them and lock in the position of the polymer(s). Next a solution of the DAT dye in IPA or DI water was drop cast onto the surface, then spun to remove excess solution. This film was then exposed to 302 nm UV light through a quartz photomask or steel shadow mask for 30 seconds. The DAT impregnated films reacted promptly and attained 60% of their full fluorescent brightness in 30 seconds and their maximum brightness in less than 5 minutes (FIG. 21A,B). […]

[3] = DAT precursor, UV-Vis absorption
Protocol: Spectroscopy was performed using a Synergy HT plate reader in with sample Corning Costar UV-transparent 96 well plates (Corning 3635). Initially samples were diluted to 1 mg/mL in either IPA or DIW and a dilution curve was made with each step reducing the concentration by half. The concentration chosen for measurement was the most concentrated sample that had the peak of interest entirely below 1.0 absorption units. When an appropriate concentration was found 100 μL of sample was then loaded into each well with samples loaded in triplicate. If the standard deviation between replicates exceeded 0.05 AU the measurement was repeated with fresh samples.

[4] = literature values of related compounds; cited from earlier work
[5] = Fluorescence titration (pH dependence, pKa) of PEG-DA-bound pyrazolines; assay type: physicochemical
Protocol: A 100 mL beaker was placed on a stir plate and filled with 50 mL of either deionized water or isopropyl alcohol and a magnetic stirrer. Fluorescent pyrazoline bound to PEG was added to a final concentration of 1 mg/mL and stirred until homogenous. An Ocean Optics SR fiber spectrometer was attached to a UV-Vis optical fiber (200-800 nm, 200 μm core diameter) and the fiber was mounted such that it was normal to the surface of the liquid. A 365 nm LED was placed at such that it illuminated the beaker from the side, perpendicular to the orientation of the fiber. If deionized water was used as the solvent, a pH probe was immersed in the liquid as well. The LED was switched on and the spectrometer exposure time was adjusted until the fluorescent peak reached at least 1000 counts or 3 seconds of exposure, whichever occurred first. During capture 5 exposures were averaged and smoothed by a 9-point moving average. […]
To determine the exact pH dependance of the fluorescence transition, fluorescence was monitored during an acid-base titration with a custom optical set-up (FIG. 12). […]
Resulting titrations generally produced either a sigmoidal curve with high and low pH stable regimes (FIG. 14A) or a static, pH independent fluorescence (FIG. 14B). […] The pKa values estimated by fluorescence are generally within their estimated pKa windows, with the exception of the amino derivatives (FIG. 14D). […]

Row | SMILES | Emission λmax ([1]; pH 3) | Emission λmax ([1]; pH 10) | Excitation λmax ([1]; pH 10) | fluorescence of resulting pyrazoline in film ([2]; PEG-DA/SF films) | fluorescence of resulting pyrazoline in film ([2]; SilMA films) | Excitation λmax ([3]; peak 1) | Excitation λmax ([3]; peak 2) | Excitation λmax ([3]; peak 3) | pKa [4] | Excitation λmax ([1]; pH 3) | pH at which highly emissive state is centered [5]
1 | Oc1ccc(-c2nnn(-c3ccccc3)n2)cc1 [DAT-10, 5-(4-hydroxyphenyl)-2-phenyl-2H-tetrazole] | 435 nm | 435 nm | 355 nm | visible | nearly completely quenched | 253 nm | 281 nm | 300 nm |  |  | 
2 | O=[N+]([O-])c1ccc(-c2nnn(-c3ccccc3)n2)cc1 [DAT-6, 5-(4-nitrophenyl)-2-phenyl-2H-tetrazole] |  |  |  |  |  | 296 nm |  |  |  |  | 
3 | OB(O)O [boric acid] |  |  |  |  |  |  |  |  | 9.15 |  | 
4 | Nc1ccc(-c2nnn(-c3ccccc3)n2)cc1 [DAT-8, 5-(4-aminophenyl)-2-phenyl-2H-tetrazole] |  |  |  |  |  | 294 nm |  |  |  |  | 
5 | Nc1cccc(-c2nnn(-c3ccccc3)n2)c1 [DAT-9, 5-(3-aminophenyl)-2-phenyl-2H-tetrazole] | 455 nm | 460 nm | 375 nm | visible | nearly completely quenched | 271 nm |  |  |  | 365 nm | 
6 | O=[N+]([O-])c1cccc(-c2nnn(-c3ccccc3)n2)c1 [DAT-7, 5-(3-nitrophenyl)-2-phenyl-2H-tetrazole] |  |  |  |  |  | 266 nm |  |  |  |  | 
7 | O=C(O)c1ccc(-c2nnn(-c3ccc(B(O)O)cc3)n2)cc1 [DAT-5, 2-(4-boronophenyl)-5-(4-carboxyphenyl)-2H-tetrazole] | 505 nm | 475 nm | 380 nm |  |  | 285 nm |  |  |  | 370 nm | 6
8 | O=C(O)c1ccc(-c2nnn(-c3ccc(S(=O)(=O)O)cc3)n2)cc1 [DAT-3, 2-(4-sulfophenyl)-5-(4-carboxyphenyl)-2H-tetrazole] | 490 nm | 460 nm | 375 nm |  |  | 279 nm |  |  |  | 385 nm | 
9 | CCOC(=O)c1ccc(-n2nnc(-c3ccc(C(=O)O)cc3)n2)cc1 [DAT-2, 2-(4-(ethoxycarbonyl)-phenyl)-5-(4-carboxyphenyl)-2H-tetrazole] | 460 nm | 455 nm | 350 nm |  |  | 265 nm |  |  |  | 370 nm | 
10 | O=C(O)c1ccc(-c2nnn(-c3ccc(O)cc3)n2)cc1 [DAT-4, 2-(4-hydroxyphenyl)-5-(4-carboxyphenyl)-2H-tetrazole] | 530 nm | 530 nm | 360 nm |  |  | 296 nm |  |  |  | 335 nm | 
